Legend:
[1] = substrate: C[C@H](O)[C@@H](O)[C@@H](O)[C@H](O)C(=O)O; test: coupled enzyme dehydration assay; assay type: biochemical, Homo sapiens
purified protein [2] = substrate: O=C(O)[C@@H](O)[C@H](O)[C@H](O)CO; test: purified protein
purified protein [3] = substrate: O=C(O)[C@@H](O)[C@H](O)[C@H](O)[C@@H](O)CO; test: purified protein
purified protein [4] = substrate: O=C(O)[C@H](O)C(O)[C@@H](O)C(=O)O; test: purified protein
purified protein [5] = substrate: O=C(O)[C@H](O)[C@H](O)[C@H](O)CO; test: purified protein

B1: rTSγ (HsrTSγ) (Homo sapiens) (protein)
chain: MVRGRISRLSVRDVRFPTSLGGHGADAMHTDPDYSAAYVVIETDAEDGIKGCGITFTLGKGTEVVVCAVNALAHHVLNKDLKDIVGDFRGFYRQLTSDGQLRWIGPEKGVVHLATAAVLNAVWDLWAKQEGKPVWKLLVDMDPRMLVSCIDFRYITDVLTEEDALEILQKGQIGKKEREKQMLAQGYPAYTTSCAWLGYSDDTLKQLCAQALKDGWTRFKVKVGADLQDDMRRCQIIRDMIGPEKTLMMDANQRWDVPEAVEWMSKLAKFKPLWIEEPTSPDDILGHATISKALVPLGIGIATGEQCHNRVIFKQLLQAKALQFLQIDSCRLGSVNENLSVLLMAKKFEIPVCPHAGGVGLCELVQHLIIFDYISVSASLENRVCEYVDHLHEHFKYPVMIQRASYMPPKDPGYSTEMKEESVKKHQYPDGEVWKKLLPA
kcat [1]: 0.5 ± 0.006 s⁻¹ | kcat/Km [1]: 2500 M⁻¹ s⁻¹ | kcat (purified protein [2]): 0.04 ± 0.002 s⁻¹ | kcat/Km (purified protein [2]): 20 M⁻¹ s⁻¹ | kcat (purified protein [3]): 0.3 ± 0.01 s⁻¹ | kcat/Km (purified protein [3]): 100 M⁻¹ s⁻¹ | kcat (purified protein [4]): 0.3 ± 0.004 s⁻¹ | kcat/Km (purified protein [4]): 75 M⁻¹ s⁻¹ | kcat (purified protein [5]): 0.002 ± 0.001 s⁻¹ | kcat/Km (purified protein [5]): 5 M⁻¹ s⁻¹
